Laboratory results: article PMC6532589

Molecular target: human alpha-thrombin (human, UniProt P00734;P00734 328-363;364-622)
Assay: centrifugation separation, free thrombin by fibrinogen-Au NP assay, Scatchard; graphene oxide carrier; 100 uM BSA; PBS (1X: 137 mM NaCl, 2.7 mM KCl, 10 mM Na2HPO4, 1.8 mM KH2PO4, pH 7.4) with 100 uM BSA, 30 min; 100 pM Supra-TBA15/29, thrombin 0-1 nM; temperature not stated

B1: Supra-TBA15/29-GO (sTBA15 + sTBA29 network on graphene oxide) (mixed)
DNA 1: AAAAAAAAAAAAAAAAAAAACGACCTGTACGACTCTTTTTTCAGGGTTGGTGTGGTTGGCTGATTTTTATCTTCACGAGCACT
DNA 2: GAGTCGTACAGGTCGTTTTTAGTCCGTGGTAGGGCAGGTTGGGGTGACTTTTTTAGTGCTCGTGAAGATAAAAAAAAAAAAAAAAAAAA
modifications: adsorbed on graphene oxide through A20 tails (40 ug/mL GO, 60 C)
Q: With B1 as the binder, how does the Kd read?
A: 19 pM
